Assay results: publication PMC10877727, “Effect of TraN key residues involved in DNA binding on pIP501 transfer rates in Enterococcus faecalis”

Experiments:
Settings in all cases: protein: recombinant; tags: N-terminal 7xHis (pQTEV); blunt
TraN = TraN (Enterococcus faecalis plasmid pIP501, UniProt Q7BVV5 1-122); test: MST; MST in PBS-T (pH and temperature not stated); 50 nM RED-tris-NTA labelled His-protein, dsDNA 0.781 nM to 12.8 uM; Monolith NT.115, 60% LED and MST power
TraN_G100A-K101A [1] = target: T1, TraN_G100A-K101A (Enterococcus faecalis plasmid pIP501, UniProt Q7BVV5 1-122, G100A;K101A); test: as above
TraN_R23A-N24A-Q28A = TraN_R23A-N24A-Q28A (Enterococcus faecalis plasmid pIP501, UniProt Q7BVV5 1-122, R23A;N24A;Q28A); test: as above
TraN_H82A-R86A [2] = target: T2, TraN_H82A-R86A (Enterococcus faecalis plasmid pIP501, UniProt Q7BVV5 1-122, H82A;R86A); test: as above
TraN_G47A-G48A = TraN_G47A-G48A (Enterococcus faecalis plasmid pIP501, UniProt Q7BVV5 1-122, G47A;G48A); test: as above
TraN_G100A-K101A [3] = target: T1, TraN_G100A-K101A; test: MST; no sigmoidal fit possible up to 12.8 uM DNA; extremely low affinity; MST in PBS-T (pH and temperature not stated); 50 nM RED-tris-NTA labelled His-protein, dsDNA 0.781 nM to 12.8 uM; Monolith NT.115, 60% LED and MST power
TraN_H82A-R86A [4] = target: T2, TraN_H82A-R86A; test: as above

Binder	Kd (TraN) [nM]	Kd (TraN_G100A-K101A [1]) [nM]	Kd (TraN_R23A-N24A-Q28A) [nM]	Kd (TraN_H82A-R86A [2]) [nM]	Kd (TraN_G47A-G48A) [nM]	binding result (TraN_G100A-K101A [3])	binding result (TraN_H82A-R86A [4])
oBS 34-mer (original TraN binding site) (dsDNA) DNA 1: CGGAAATGTCAGGTTAAACATATTTACTTTTATA DNA 2: TATAAAAGTAAATATGTTTAACCTGACATTTCCG	11.7 ± 2.65	406 ± 45.5	154 ± 19.5	425 ± 102	48.8 ± 9.75	–	–
random DNA 34-mer (dsDNA) DNA 1: AGGGCGCACTTATACGCAGTAACTTCGTTACTTC DNA 2: GAAGTAACGAAGTTACTGCGTATAAGTGCGCCCT	–	–	–	–	–	no binding	no binding
